Measured values: the supplement of paper PMC9170038

Key:
MS2 coat protein [1] = test: apparent KD of MS2 coat protein, switch OFF state (with FMN for OFF switches, without FMN for ON switches); designed switch direction (-1 OFF switch, 1 ON switch): -1; higher = weaker reporter binding; settings: FMN input: 0 or 200 uM; Eterna round: R93 (includes R88 designs)
Procedure, shortened: (§1)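 Apparent KD per design is the median of normalised cluster binding-curve fits. Designed RNA switches transcribed on-chip from Illumina sequencing clusters were titrated with SNAP-549-labelled MS2 coat protein in twofold steps from 0.7 or 1.5 nM to 3 µM, with 0.8–1.5 h down to 10–20 min per step. Buffer: 100 mM Tris-HCl pH 7.5, 80 mM KCl, 4 mM MgCl2, without or with constant ligand.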

MS2 coat protein [2] = test: apparent KD of MS2 coat protein, switch ON state; designed switch direction (-1 OFF switch, 1 ON switch): -1; higher = weaker reporter binding; settings: FMN input: 0 or 200 uM; Eterna round: R93 (includes R88 designs)
Procedure, shortened: as §1

| Sequence | apparent KD of MS2 coat protein (MS2 coat protein [1]) [nM] | apparent KD of MS2 coat protein (MS2 coat protein [2]) [nM] |
| --- | --- | --- |
| AAAGGACGAGGAUAUACAUGAGGAUCACCCAUGUAAAAAGCGUAGCAAAAGAGCUUAUGUAGAAGGCGUCCAAA [Meechl Ex3 2 R2 v4] | 49.3 | 20 |
| AAAGGAGUAGGAUAUACAUGAGGAUCACCCAUGUAAAAAACAUAAUAAAAGAACUUAUGUAGAAGGGCUCCAAA [69%, Moding Meechl, 11] | 77.9 | 35.8 |
| AAAGUGUCAGGAUAUGCGAAGGCAUCUGACAGAUGAGGAUCGCAGAAGGGACAUGAGGAUCACCCAUGUAAAAA | 117 | 65.6 |
| AAAUCGGCAGGAUAUACAUGAAAAUUAAAAAAAAAAAAAAAACAUGAGGAUCACCCAUGUAGAAGGGUCAAAAA [Exclusion 2 - Omei 3] | 75.2 | 77.9 |
| AAAUGACAUGAGGAUCACCCAUGUCAGGAUAUGACUUGAAAAAUAAAAUAAAAACAUGUCAGAAGGGACAUGAA [Design 47: Sub-opt E] | 17.6 | 16.5 |
| AAAUGUCUAGGAUAUACAUGAGGAUCACCCAUGUGUAAAAAUAAAUACACAAAAGAAAGUAGAAGGAGACAAAG [Mat - Exclusion 3 - Mayanna mod - D121] | 59.9 | 21.6 |
| AAAUGUUGAGGAUAUACAUGAGGAUCACCCAUGUGUAAAAAUAAAUACACAAAAGAAAGUAGAAGGCAACAAAA [Ex 3 May 11] | 79.7 | 28.7 |
| AAAUUGUCAGGAUAUCGUAGAAUAGUGAAAAACUAGAGCUACGAGAAGGGACAUGAGGAUCACCCAUGUAAAAC [May 92] | 54.4 | 43.3 |
| AAAUUGUCAGGAUAUGUAGCAAAAGGUGAUCAAAAAAAGCUACAGAAGGGACAUGAGGAUCACCCAUGUAAAAA [Ex4: 936] | 359 | 242 |
| AACAAGUGAGGAUAUGAAAAUAAAACAAACAAACAAAUAAAUCAGAAGGCACAUGAGGAUCACCCAUGUAAAAA [JR_Exc004_Sub1203] | 18.5 | 17.1 |
| AACAGGACAGGAUAUACAUGAGGAUCACCCAUGUGAGAAUUCAGUAGAUUGCCACAGAGUAGAAGGGUCCUGGA [Ruby 100] | 102 | 58.5 |
| AACAGUACAGGAUAUACAUGAGGAUCACCCAUGUAAAAAUAAAAGGGAAUCUCAAAAAGUAGAAGGGUACUGGA [Moding Maslow revisited (73) 13] | 36.3 | 72.5 |
| AACAGUACAGGAUAUACAUGAGGAUCACCCAUGUGAAAAGAAAGUGGCGUACCACAAAGUAGAAGGGUACUGGA [Mat - Exclusion 3 - JL mod - D24] | 96.8 | 27.5 |
| AACAGUACAGGAUAUACAUGAGGAUCACCCAUGUGAAAAUUAAGUGGAAAACCACAAUGUAGAAGGGUACUGGA [Mat - Exclusion 3 - Eli mod - D49] | 219 | 46.1 |
| AACAGUACAGGAUAUACAUGAGGAUCACCCAUGUGAAAAUUAAGUGGAGAACCACAAUGUAGAAGGGUACUGGA [Mat - Exclusion 3 - Eli mod - D48] | 57.3 | 133 |
| AACAGUACAGGAUAUACAUGAGGAUCACCCAUGUGAAAAUUAAGUGGAGAACCACAGUGUAGAAGGGUACUGGA [Mat - Exclusion 3 - Eli mod - D52] | 49.8 | 142 |
| AACAGUACAGGAUAUACAUGAGGAUCACCCAUGUGAAAUAAAAGUGGCGUACCACAAAGUAGAAGGGUACUGGA [Mat - Exclusion 3 - JL mod - D22] | 119 | 27.3 |
| AACAGUACAGGAUAUACAUGAGGAUCACCCAUGUGAAGAAUAAGUGGAGUACCACAAAGUAGAAGGGUACUGGA [Ruby 88] | 104 | 31.8 |
| AACAGUACAGGAUAUACAUGAGGAUCACCCAUGUGACAUAAAUAAAACAAAAAUAAAAGUAGAAGGGUACUGGA [Ruby 43] | 60 | 28.5 |
| AACAGUACAGGAUAUACAUGAGGAUCACCCAUGUGAGAAAUAAGUGGCGUACCACAAAGUAGAAGGGUACUGGA [Mat - Exclusion 3 - JL mod - D21] | 150 | 32.6 |

| Sequence | apparent KD of MS2 coat protein (MS2 coat protein [1]) [nM] | apparent KD of MS2 coat protein (MS2 coat protein [2]) [nM] |
| --- | --- | --- |
| AACAGUACAGGAUAUACAUGAGGAUCACCCAUGUGAGAAUUAAAAGGCGUACCUAAAUGUAGAAGGGUACUGGA [JL Maslow Revisted mod 19] | 61.8 | 56.3 |
| AACAGUACAGGAUAUACAUGAGGAUCACCCAUGUGAUAGGAAUAAAACAAAAAUAAAAGUAGAAGGGUACUGGA [Ruby 46] | 145 | 34 |
| AACAUACAUGAGGAUCACCCAUGUCAGGAUAUGCCGGGUUAGAGCCAACUGAAAAACCGUAGAAGGGACGAAAA [Bilbo Confounded 8 - Jieux - Exclusion 1] | 79.5 | 66.9 |
| AACAUGUAAGGAUAUGCUGCUCGUCACAAAAGUGAUGAGUAGCAGAAGGUACAUGAGGAUCACCCAUGUAAAGA [JL eternac mod 14] | 111 | 50.6 |
| AACAUGUCAGGAUAUGCAAAAGGAGACUGACACGCGAGUGAGCAGAAGGGACAUGAGGAUCACCCAUGUUCAAA [Mat - Mod of Meechl] | 15.6 | 20.9 |
| AACAUGUCAGGAUAUGUAGCAAAAGGUGAUCAAAAAAAGCUACAGAAGGGACAUGAGGAUCACCCAUGUAAAAA [Ex4: 934] | 37.1 | 126 |
| AACAUGUCAGGAUAUGUAGCAUGAUACGAAAGUAUCAUGCUACAGAAGGGACAUGAGGAUCACCCAUGUGAUCA [Ex4: 940] | 22 | 26.7 |
| AACAUGUCAGGAUAUGUGGAAAGAAUAAAAGAAAUAAGAACACAGAAGGGACAUGAGGAUCACCCAUGUCAACA [May 31] | 25.7 | 27.7 |
| AACUGACAUGAGGAUCACCCAUGUCAGGAUAUGCAUCUUAGGAAAAAAAAACUAAGAUGCAGAAGGGACAUGGA [Design 4: Super Stable 4] | 46.2 | 23.9 |
| AACUGACAUGAGGAUCACCCAUGUCAGGAUAUGCUUCAUAAAAUAAAAAUAAAAUGAUGCAGAAGGGACAUGAA [Design 27 :P Sub-opt 3] | 13.5 | 15.4 |
| AACUGGGCAGGAUAUACAUGAGGAUCACCCAUGUAAAGAAAAGAAAGAUCCGAAGAAAGUAGAAGGGCCUGGAA [Variant 3 of Mod 1 of Ex3 sub 3, by Tesla's Dusciple Round 1] | 126 | 98 |
| AAGAAACAUGAGGAUCACCCAUGUGAGGAUAUCUAAAAGAAAAGAAAAGAAAGAAGAAAGAGAAGGCACAAAGG [Setut] | 64.1 | 34.7 |
| AAGAACCUAGGAUAUACAUGAGGAUCACCCAUGUAAAAGAAAGAAAGGGAAAAGAAAAGUAGAAGGAGGAAGAA [Heqakheperre Shoshenq II] | 15.7 | 12.1 |
| AAGAACGGAGGAUAUACAAAAUAAAAGAAAAGAAAGAAAGAACAUGAGGAUCACCCAUGUAGAAGGCCGAAGAA [Sehetepibre Sewesekhtawy] | 29 | 20.9 |
| AAGAACUCAGGAUAUACAUGAGGAUCACCCAUGUAAAAGAAAGAGGGAAAAGAGAAAAGUAGAAGGGAGAAGAA [Ptolemy IV Philopator] | 46.9 | 14 |
| AAGAACUGAGGAUAUACAUGAAAGAAAGAAAAGAAAAGAAAACAUGAGGAUCACCCAUGUAGAAGGCAGAAGAA [EteRNA is fun!] | 14.4 | 16.9 |
| AAGAAGAAAGGAUAUACAAGGAAGAAAGAAAAGAAAAGAAAACAUGAGGAUCACCCAUGUAGAAGGUUCUAGAA [EteRNA is fun!] | 9.5 | 15.2 |
| AAGAAGACAGGAUAUACAUGAGGAUCACCCAUGUAAAAGAAAGAAGGGAAAGAGAAAAGUAGAAGGGUCAAGAA [Menkheperre Ini] | 25.3 | 23.6 |
| AAGAAGCAAGGAUAUACAUGAAAGAAAGAAAAGAAAAGAAAACAUGAGGAUCACCCAUGUAGAAGGUGCUAGAA [EteRNA is fun!] | 47.8 | 34.6 |
| AAGAAGCAAGGAUAUACAUGAGGAUCACCCAUGUAAAAGAAAGAAAAGGGAAAGAAAAGUAGAAGGUGCAAAGA [Ruby 69] | 72.8 | 43.6 |
